Data as given in the supplement of paper PMC7125110.
± gives the standard error. For part of these data: This sample holds only a part of the variants without activity.

B1: glmS ribozyme (parent)
chain: AUAAAAGCGCCAGAACUACAGAAAUGUAGUUGACGAGGAGGAGGUUUAUCGAAUUUUCGGCGGAUGCCUCCAAA

Experiments:
Conditions in all cases: with glucosamine-6-phosphate
glucosamine-6-phosphate [1] = variants of: B1; test: kcat; higher = faster cleavage; RNA array
Procedure, shortened: (§1)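 Over ~14 h at 37 °C, tiles were imaged as glucosamine-6-phosphate (40 μM to 10 mM) in HEPES/KCl/Mg(OAc)2 buffer flowed across sequenced MiSeq chips. The chips carried barcoded ribozyme variants transcribed in situ by E. coli RNA polymerase and tracked with a hybridised Cy3 probe. After normalisation to baseline and to non-cleaving reference variants, one- or two-exponential decay fits of per-tile medians gave kobs. kcat and KM followed from weighted Michaelis–Menten fits across concentrations.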

glucosamine-6-phosphate [2] = variants of: B1; test: KM; higher = weaker cofactor use; RNA array
Procedure, shortened: as §1

glucosamine-6-phosphate [3] = variants of: B1; test: self-cleavage kobs at 160 uM GlcN6P; higher = faster cleavage; RNA array
Procedure, shortened: as §1

glucosamine-6-phosphate [4] = variants of: B1; test: self-cleavage kobs at 640 uM GlcN6P; higher = faster cleavage; RNA array
Procedure, shortened: as §1

glucosamine-6-phosphate [5] = variants of: B1; test: self-cleavage kobs at 2500 uM GlcN6P; higher = faster cleavage; RNA array
Procedure, shortened: as §1

glucosamine-6-phosphate [6] = variants of: B1; test: self-cleavage kobs at 10000 uM GlcN6P; higher = faster cleavage; RNA array
Procedure, shortened: as §1

glucosamine-6-phosphate [7] = variants of: B1; test: self-cleavage kobs at 40 uM GlcN6P; higher = faster cleavage; RNA array
Procedure, shortened: as §1

| Variant | kcat (glucosamine-6-phosphate [1]) | KM (glucosamine-6-phosphate [2]) | self-cleavage kobs at 160 uM GlcN6P (glucosamine-6-phosphate [3]) | self-cleavage kobs at 640 uM GlcN6P (glucosamine-6-phosphate [4]) | self-cleavage kobs at 2500 uM GlcN6P (glucosamine-6-phosphate [5]) | self-cleavage kobs at 10000 uM GlcN6P (glucosamine-6-phosphate [6]) | self-cleavage kobs at 40 uM GlcN6P (glucosamine-6-phosphate [7]) |
| --- | --- | --- | --- | --- | --- | --- | --- |
| A39G A52G | 0.00286 ± 0.00015 s⁻¹ | 3960 ± 330 µM | 0.000117 ± 3.5e-05 s⁻¹ | 0.000407 ± 8.1e-05 s⁻¹ | 0.00108 ± 0.0003 s⁻¹ | 0.00205 ± 0.00028 s⁻¹ | – |
| A39U U47C | 0.00869 ± 0.002 s⁻¹ | 1870 ± 580 µM | 0.000748 ± 0.0002 s⁻¹ | 0.00198 ± 0.00032 s⁻¹ | 0.00471 ± 0.00098 s⁻¹ | 0.00934 ± 0.0026 s⁻¹ | 0.000213 ± 4.3e-05 s⁻¹ |
| G41A | 0.00567 ± 0.0025 s⁻¹ | – | 0.00036 ± 6.4e-05 s⁻¹ | 0.000923 ± 0.0001 s⁻¹ | 0.00264 ± 0.00017 s⁻¹ | – | 0.000349 ± 0.00013 s⁻¹ |
| G41U | 0.00376 ± 0.0013 s⁻¹ | – | 0.000391 ± 6.3e-05 s⁻¹ | 0.00102 ± 9.3e-05 s⁻¹ | 0.00263 ± 0.00015 s⁻¹ | – | 0.000171 ± 1.9e-05 s⁻¹ |
| A39G A53G | 0.0916 ± 0.024 s⁻¹ | 2770 ± 830 µM | 0.00433 ± 0.00068 s⁻¹ | 0.0194 ± 0.0037 s⁻¹ | 0.0404 ± 0.015 s⁻¹ | 0.0725 ± 0.019 s⁻¹ | 0.0015 ± 0.00022 s⁻¹ |
| G41U A52G | 0.000128 ± 2e-05 s⁻¹ | 1140 ± 560 µM | – | 3.83e-05 ± 8.7e-06 s⁻¹ | 0.000113 ± 1.3e-05 s⁻¹ | 0.000107 ± 1.1e-05 s⁻¹ | – |
| A39G G66A | 0.0379 ± 0.019 s⁻¹ | – | 0.00437 ± 0.0011 s⁻¹ | 0.00601 ± 0.001 s⁻¹ | 0.0223 ± 0.0067 s⁻¹ | 0.0342 ± 0.0078 s⁻¹ | 0.000706 ± 0.00011 s⁻¹ |
| G41A U47C | 7.04e-05 ± 3.2e-07 s⁻¹ | 1800 ± 30 µM | – | – | 4.08e-05 ± 1e-05 s⁻¹ | 5.98e-05 ± 8.4e-06 s⁻¹ | – |
| G41A U47A | 0.000635 ± 9.4e-05 s⁻¹ | 282 ± 86 µM | – | 0.000573 ± 0.00011 s⁻¹ | 0.000608 ± 0.00018 s⁻¹ | 0.00055 ± 0.0001 s⁻¹ | 7.36e-05 ± 1.6e-05 s⁻¹ |
| G41A U55G | 0.000144 ± 2.3e-05 s⁻¹ | – | 5.67e-05 ± 1.5e-05 s⁻¹ | 0.000142 ± 3.9e-05 s⁻¹ | 0.000107 ± 1.9e-05 s⁻¹ | 0.000179 ± 2.9e-05 s⁻¹ | – |
| G40A U45A | 0.00316 ± 0.00068 s⁻¹ | 510 ± 160 µM | 0.000585 ± 0.00027 s⁻¹ | 0.00157 ± 0.00029 s⁻¹ | 0.00221 ± 0.00084 s⁻¹ | 0.00427 ± 0.00099 s⁻¹ | 0.000251 ± 3.8e-05 s⁻¹ |
| A39U G41A | 0.00029 ± 1.6e-05 s⁻¹ | 651 ± 93 µM | 5.88e-05 ± 1.3e-05 s⁻¹ | 0.00014 ± 1.5e-05 s⁻¹ | 0.00025 ± 2.7e-05 s⁻¹ | 0.000257 ± 3e-05 s⁻¹ | – |
| A39C U65A | 0.000512 ± 3.7e-05 s⁻¹ | 4220 ± 530 µM | – | 6.9e-05 ± 1.1e-05 s⁻¹ | 0.000191 ± 2.8e-05 s⁻¹ | 0.000359 ± 4.1e-05 s⁻¹ | – |
| A39G C67G | 0.00311 ± 0.00098 s⁻¹ | 602 ± 300 µM | 0.000603 ± 0.00015 s⁻¹ | 0.00174 ± 0.00035 s⁻¹ | 0.00535 ± 0.0012 s⁻¹ | 0.00223 ± 0.00066 s⁻¹ | 0.000189 ± 4.5e-05 s⁻¹ |
| A39G U46A | 0.00547 ± 0.00066 s⁻¹ | 2120 ± 360 µM | 0.000377 ± 0.0001 s⁻¹ | 0.00116 ± 0.00029 s⁻¹ | 0.00325 ± 0.00083 s⁻¹ | 0.00435 ± 0.0014 s⁻¹ | 0.000116 ± 3.8e-05 s⁻¹ |
| G40A U49G | 0.000121 ± 1.7e-06 s⁻¹ | 1210 ± 55 µM | – | 4.19e-05 ± 1e-05 s⁻¹ | – | 0.000108 ± 1.3e-05 s⁻¹ | – |
| A39U C71G | 0.00162 ± 0.00048 s⁻¹ | 3300 ± 1600 µM | 0.000107 ± 2e-05 s⁻¹ | 0.00022 ± 2.8e-05 s⁻¹ | 0.00066 ± 9.6e-05 s⁻¹ | 0.00126 ± 0.00011 s⁻¹ | 4.48e-05 ± 8.3e-06 s⁻¹ |
| G40C C70U C71G | 0.00208 ± 0.00091 s⁻¹ | – | 0.000296 ± 8.3e-05 s⁻¹ | 0.000624 ± 0.00016 s⁻¹ | 0.00208 ± 0.00051 s⁻¹ | 0.00243 ± 0.00039 s⁻¹ | 0.000192 ± 2.7e-05 s⁻¹ |
| A42G C71U | 0.0155 ± 0.0039 s⁻¹ | 732 ± 250 µM | 0.00294 ± 0.00058 s⁻¹ | 0.0053 ± 0.0011 s⁻¹ | 0.0147 ± 0.0047 s⁻¹ | 0.0178 ± 0.0034 s⁻¹ | 0.000864 ± 0.0001 s⁻¹ |
| G41A U46G C70U | 0.00726 ± 0.0013 s⁻¹ | 620 ± 170 µM | – | 0.00452 ± 0.0018 s⁻¹ | – | 0.00749 ± 0.002 s⁻¹ | 0.000436 ± 0.0001 s⁻¹ |
| G41C U54G | 0.000435 ± 5.6e-05 s⁻¹ | 1610 ± 450 µM | – | 0.000123 ± 2.4e-05 s⁻¹ | 0.000354 ± 8.9e-05 s⁻¹ | 0.000363 ± 4.8e-05 s⁻¹ | – |
| A42G G51A | < 1e-05 s⁻¹ | – | – | – | – | < 1e-05 s⁻¹ | < 1e-05 s⁻¹ |
| G41U U55A | 0.000121 ± 2e-05 s⁻¹ | – | 5.55e-05 ± 1.3e-05 s⁻¹ | 0.000132 ± 2e-05 s⁻¹ | 0.000105 ± 3.7e-05 s⁻¹ | 0.000105 ± 1.7e-05 s⁻¹ | – |
| G40A C70A | 0.000241 ± 1.6e-05 s⁻¹ | 350 ± 60 µM | 6.86e-05 ± 1.9e-05 s⁻¹ | 0.000163 ± 2.5e-05 s⁻¹ | 0.000235 ± 4.9e-05 s⁻¹ | 0.000217 ± 3.8e-05 s⁻¹ | 2.59e-05 ± 1.2e-05 s⁻¹ |
| A39C U57C | 1.89e-05 ± 2.4e-06 s⁻¹ | – | – | – | 1.97e-05 ± 9.4e-06 s⁻¹ | – | – |
| A39U U57G | 2.55e-05 ± 5.3e-06 s⁻¹ | – | – | – | 3.12e-05 ± 1.3e-05 s⁻¹ | 2.2e-05 ± 9.3e-06 s⁻¹ | – |
| G40U U49G C71G | 0.000114 ± 2.6e-05 s⁻¹ | – | – | – | 8.01e-05 ± 2.8e-05 s⁻¹ | 9.53e-05 ± 1.8e-05 s⁻¹ | – |
| G40U U55C | 0.000228 ± 3.6e-06 s⁻¹ | 6810 ± 240 µM | – | – | – | 0.000135 ± 1.7e-05 s⁻¹ | – |
| A39U A64U | 4.75e-05 ± 1.7e-06 s⁻¹ | 537 ± 120 µM | – | 2.64e-05 ± 9.3e-06 s⁻¹ | 4e-05 ± 7e-06 s⁻¹ | 4.46e-05 ± 5.4e-06 s⁻¹ | – |
